# Laboratory results: patent US20050272653A1 (ACCELERON PHARMA, published 2005)
# B1: BMP3A propeptide-Murine IgG2a peptide Fc fusion protein (Fc fusion)
# chain: ERPKPPFPELRKAVPGDRTAGGGPDSELQPQDKVSEHMLRLYDRYSTVQAARTPGSLEGGSQPWRPRLLREGNTVRSFRAAAAETLERKGLYIFNLTSLTKSENILSATLYFCIGELGNISLSCPVSGGCSHHAQRKHIQIDLSAWTLKFSRNQSQLLGHLSVDMAKSHRDIMSWLSKDITQFLRKAKENEEFLIGFNITSKGRQLPKRRLPFPEPYILVYANDAAISEPESVVSSLQGHRNFPTGTVPKWDSHIRAALSIERRKKRSTGVLLPLQNNELPGAEYQYKKDEVWEERKPYKTLQAQAPEKSKNKKKQRKGPHRKSQTLQFDEQTLKKARRK
# notes: Expressed in HEK293 cells and purified on Protein A; highly glycosylated; also called BMP3 pro-MuIgG2a; BMP3 pro-MuIg2a; not shown: murine IgG2a Fc
# Molecular target: T1, BSA (bovine, UniProt P02769 25-607)
# T1 construct: Control analyte in the BiaCore experiment
# Assay: BiaCore CM5 chip, BMP3 pro-MuIgG2a amine coupled, BSA flowed over
# T1 sequence (P02769 25-607 limits assumed): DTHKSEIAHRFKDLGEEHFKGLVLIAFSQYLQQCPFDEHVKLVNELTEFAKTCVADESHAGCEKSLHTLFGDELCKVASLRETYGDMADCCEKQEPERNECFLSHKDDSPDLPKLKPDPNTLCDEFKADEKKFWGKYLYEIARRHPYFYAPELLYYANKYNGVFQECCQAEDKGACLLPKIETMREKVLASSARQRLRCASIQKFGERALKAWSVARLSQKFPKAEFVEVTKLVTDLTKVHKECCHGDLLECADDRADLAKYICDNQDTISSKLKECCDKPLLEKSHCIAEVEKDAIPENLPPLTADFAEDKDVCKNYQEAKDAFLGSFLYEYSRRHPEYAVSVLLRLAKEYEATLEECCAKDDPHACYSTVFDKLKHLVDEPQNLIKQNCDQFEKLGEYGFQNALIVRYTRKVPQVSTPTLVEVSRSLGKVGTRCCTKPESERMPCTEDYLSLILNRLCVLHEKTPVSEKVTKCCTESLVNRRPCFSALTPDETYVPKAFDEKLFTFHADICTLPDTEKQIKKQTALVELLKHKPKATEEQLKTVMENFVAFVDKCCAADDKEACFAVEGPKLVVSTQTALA
binder,measurement,value
B1,binding result,no binding
